From patent publication US20240076360A1 (University of Pennsylvania, published 2024)

How the values were obtained:
cynomolgus monkey C5 = target: T1, cynomolgus monkey C5 (cynomolgus monkey); assay: ELISA, recombinant C5 coated at 3 µg/ml, serially diluted antibody, HRP anti-IgG4 Fc detection
T1 construct: also called cyno C5; cyno monkey C5
Experimental: (§1) ELISA wells were coated with recombinant C5 protein of relevant species (3 μg/ml in coating buffer, 100 μl/well, 4° C. overnight). […] Sheep RBC lysis assay was performed as described in Example 3, using 5-20% cynomolgus monkey serum.

mouse C5 = target: T2, mouse C5 (mouse, UniProt P06684 19-1680, limits assumed); assay: ELISA, wells coated with recombinant C5 (3 ug/ml), serially diluted antibody, detection with HRP anti-IgG4 Fc, OD450
T2 construct: also called recombinant mouse C5 protein
Experimental: as §1

rat C5 = target: T3, rat C5 (rat, UniProt P08650 19-1681, limits assumed); assay: as above
T3 construct: also called recombinant rat C5 protein
Experimental: as §1

rabbit C5 = target: T4, rabbit C5 (rabbit, UniProt G1SPF9 19-673; G1SPF9 678-1675); assay: as above
T4 construct: also called recombinant rabbit C5 protein
Experimental: as §1

T3 sequence (P08650 19-1681 limits assumed): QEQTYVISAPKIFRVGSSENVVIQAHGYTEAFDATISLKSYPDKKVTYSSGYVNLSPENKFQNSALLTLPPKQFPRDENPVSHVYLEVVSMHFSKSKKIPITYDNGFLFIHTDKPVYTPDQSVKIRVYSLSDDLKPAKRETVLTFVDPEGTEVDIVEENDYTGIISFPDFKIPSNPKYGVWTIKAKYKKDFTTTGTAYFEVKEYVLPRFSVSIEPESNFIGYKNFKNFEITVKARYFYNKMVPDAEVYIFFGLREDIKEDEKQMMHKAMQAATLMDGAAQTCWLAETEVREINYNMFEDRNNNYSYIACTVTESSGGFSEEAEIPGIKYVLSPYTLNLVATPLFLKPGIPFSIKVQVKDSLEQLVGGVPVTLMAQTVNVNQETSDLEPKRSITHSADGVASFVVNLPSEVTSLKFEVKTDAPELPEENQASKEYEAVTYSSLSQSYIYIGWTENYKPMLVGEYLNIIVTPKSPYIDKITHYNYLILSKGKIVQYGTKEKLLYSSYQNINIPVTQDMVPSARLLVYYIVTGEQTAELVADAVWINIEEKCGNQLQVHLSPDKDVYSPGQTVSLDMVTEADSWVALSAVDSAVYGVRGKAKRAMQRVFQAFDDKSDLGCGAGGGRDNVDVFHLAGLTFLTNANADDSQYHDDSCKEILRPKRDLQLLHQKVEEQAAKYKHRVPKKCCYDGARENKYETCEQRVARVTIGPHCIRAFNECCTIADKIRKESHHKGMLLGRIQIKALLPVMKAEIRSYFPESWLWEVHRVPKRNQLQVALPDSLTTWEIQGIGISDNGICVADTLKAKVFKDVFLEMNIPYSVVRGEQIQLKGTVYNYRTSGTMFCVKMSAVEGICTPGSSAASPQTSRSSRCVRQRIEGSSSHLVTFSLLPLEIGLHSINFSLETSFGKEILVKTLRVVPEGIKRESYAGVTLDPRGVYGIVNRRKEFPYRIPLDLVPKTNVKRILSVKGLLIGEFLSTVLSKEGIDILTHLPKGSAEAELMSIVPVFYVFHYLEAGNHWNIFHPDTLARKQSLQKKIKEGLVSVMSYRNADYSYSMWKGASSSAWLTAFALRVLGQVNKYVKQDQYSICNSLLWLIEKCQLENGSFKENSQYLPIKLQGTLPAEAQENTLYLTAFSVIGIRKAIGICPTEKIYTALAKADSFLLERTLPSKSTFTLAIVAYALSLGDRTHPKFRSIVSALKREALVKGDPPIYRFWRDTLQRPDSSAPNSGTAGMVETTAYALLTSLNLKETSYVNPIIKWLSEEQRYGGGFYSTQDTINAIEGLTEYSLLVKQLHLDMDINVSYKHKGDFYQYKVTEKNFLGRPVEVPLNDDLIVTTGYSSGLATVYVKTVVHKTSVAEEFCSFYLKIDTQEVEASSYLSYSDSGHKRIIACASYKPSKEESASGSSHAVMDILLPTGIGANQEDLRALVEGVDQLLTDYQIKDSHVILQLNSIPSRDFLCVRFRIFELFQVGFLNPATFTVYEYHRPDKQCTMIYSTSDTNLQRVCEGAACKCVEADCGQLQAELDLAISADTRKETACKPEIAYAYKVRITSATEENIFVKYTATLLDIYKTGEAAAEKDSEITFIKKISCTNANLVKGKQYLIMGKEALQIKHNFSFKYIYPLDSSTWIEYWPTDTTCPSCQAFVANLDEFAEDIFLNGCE
T4 sequence (beta, as listed by the source limits assumed, chain 1 of 2): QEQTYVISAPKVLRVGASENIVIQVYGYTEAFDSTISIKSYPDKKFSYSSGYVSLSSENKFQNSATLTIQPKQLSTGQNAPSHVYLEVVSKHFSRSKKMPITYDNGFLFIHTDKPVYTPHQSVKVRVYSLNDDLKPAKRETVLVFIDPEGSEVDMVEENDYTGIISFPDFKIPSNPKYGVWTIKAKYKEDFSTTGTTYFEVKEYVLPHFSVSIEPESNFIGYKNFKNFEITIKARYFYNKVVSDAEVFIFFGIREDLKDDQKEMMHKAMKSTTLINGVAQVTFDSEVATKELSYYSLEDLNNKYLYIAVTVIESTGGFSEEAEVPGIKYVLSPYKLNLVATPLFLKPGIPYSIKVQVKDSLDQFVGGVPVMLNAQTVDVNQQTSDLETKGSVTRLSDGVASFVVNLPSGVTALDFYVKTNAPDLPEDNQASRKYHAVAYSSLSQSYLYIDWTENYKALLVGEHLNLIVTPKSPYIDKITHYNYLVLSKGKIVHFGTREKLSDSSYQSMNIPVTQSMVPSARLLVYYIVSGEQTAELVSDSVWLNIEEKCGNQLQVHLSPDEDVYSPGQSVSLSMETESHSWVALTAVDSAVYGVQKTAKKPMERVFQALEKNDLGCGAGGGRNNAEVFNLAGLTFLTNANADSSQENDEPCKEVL
T4 sequence (alpha, as listed by the source limits assumed, chain 2 of 2): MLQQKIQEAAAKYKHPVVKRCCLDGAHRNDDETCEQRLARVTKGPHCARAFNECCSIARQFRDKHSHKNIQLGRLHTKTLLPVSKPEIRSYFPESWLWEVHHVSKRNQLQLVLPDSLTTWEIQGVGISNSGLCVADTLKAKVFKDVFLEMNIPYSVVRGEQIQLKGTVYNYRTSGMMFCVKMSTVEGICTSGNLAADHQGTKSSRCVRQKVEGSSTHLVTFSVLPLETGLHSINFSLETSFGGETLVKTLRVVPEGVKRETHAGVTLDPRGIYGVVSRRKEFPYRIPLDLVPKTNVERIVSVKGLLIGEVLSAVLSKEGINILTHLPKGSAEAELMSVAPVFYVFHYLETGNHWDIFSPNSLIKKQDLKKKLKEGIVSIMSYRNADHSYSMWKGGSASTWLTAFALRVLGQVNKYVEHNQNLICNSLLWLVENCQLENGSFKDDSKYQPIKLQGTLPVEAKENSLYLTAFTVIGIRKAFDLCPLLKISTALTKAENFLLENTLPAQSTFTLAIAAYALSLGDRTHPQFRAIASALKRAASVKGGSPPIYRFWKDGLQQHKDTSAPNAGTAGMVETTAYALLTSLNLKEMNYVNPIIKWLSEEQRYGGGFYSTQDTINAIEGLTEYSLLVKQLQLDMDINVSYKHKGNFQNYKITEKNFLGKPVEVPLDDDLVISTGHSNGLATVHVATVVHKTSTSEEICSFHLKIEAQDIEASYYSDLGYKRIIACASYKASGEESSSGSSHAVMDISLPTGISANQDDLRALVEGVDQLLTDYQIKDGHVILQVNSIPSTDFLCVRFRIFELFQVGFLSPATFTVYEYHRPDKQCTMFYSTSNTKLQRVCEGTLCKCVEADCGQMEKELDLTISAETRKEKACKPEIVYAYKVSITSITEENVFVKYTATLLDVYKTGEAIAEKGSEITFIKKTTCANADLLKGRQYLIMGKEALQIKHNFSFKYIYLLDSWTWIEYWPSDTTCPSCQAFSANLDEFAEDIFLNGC
T2 sequence (P06684 19-1680 limits assumed): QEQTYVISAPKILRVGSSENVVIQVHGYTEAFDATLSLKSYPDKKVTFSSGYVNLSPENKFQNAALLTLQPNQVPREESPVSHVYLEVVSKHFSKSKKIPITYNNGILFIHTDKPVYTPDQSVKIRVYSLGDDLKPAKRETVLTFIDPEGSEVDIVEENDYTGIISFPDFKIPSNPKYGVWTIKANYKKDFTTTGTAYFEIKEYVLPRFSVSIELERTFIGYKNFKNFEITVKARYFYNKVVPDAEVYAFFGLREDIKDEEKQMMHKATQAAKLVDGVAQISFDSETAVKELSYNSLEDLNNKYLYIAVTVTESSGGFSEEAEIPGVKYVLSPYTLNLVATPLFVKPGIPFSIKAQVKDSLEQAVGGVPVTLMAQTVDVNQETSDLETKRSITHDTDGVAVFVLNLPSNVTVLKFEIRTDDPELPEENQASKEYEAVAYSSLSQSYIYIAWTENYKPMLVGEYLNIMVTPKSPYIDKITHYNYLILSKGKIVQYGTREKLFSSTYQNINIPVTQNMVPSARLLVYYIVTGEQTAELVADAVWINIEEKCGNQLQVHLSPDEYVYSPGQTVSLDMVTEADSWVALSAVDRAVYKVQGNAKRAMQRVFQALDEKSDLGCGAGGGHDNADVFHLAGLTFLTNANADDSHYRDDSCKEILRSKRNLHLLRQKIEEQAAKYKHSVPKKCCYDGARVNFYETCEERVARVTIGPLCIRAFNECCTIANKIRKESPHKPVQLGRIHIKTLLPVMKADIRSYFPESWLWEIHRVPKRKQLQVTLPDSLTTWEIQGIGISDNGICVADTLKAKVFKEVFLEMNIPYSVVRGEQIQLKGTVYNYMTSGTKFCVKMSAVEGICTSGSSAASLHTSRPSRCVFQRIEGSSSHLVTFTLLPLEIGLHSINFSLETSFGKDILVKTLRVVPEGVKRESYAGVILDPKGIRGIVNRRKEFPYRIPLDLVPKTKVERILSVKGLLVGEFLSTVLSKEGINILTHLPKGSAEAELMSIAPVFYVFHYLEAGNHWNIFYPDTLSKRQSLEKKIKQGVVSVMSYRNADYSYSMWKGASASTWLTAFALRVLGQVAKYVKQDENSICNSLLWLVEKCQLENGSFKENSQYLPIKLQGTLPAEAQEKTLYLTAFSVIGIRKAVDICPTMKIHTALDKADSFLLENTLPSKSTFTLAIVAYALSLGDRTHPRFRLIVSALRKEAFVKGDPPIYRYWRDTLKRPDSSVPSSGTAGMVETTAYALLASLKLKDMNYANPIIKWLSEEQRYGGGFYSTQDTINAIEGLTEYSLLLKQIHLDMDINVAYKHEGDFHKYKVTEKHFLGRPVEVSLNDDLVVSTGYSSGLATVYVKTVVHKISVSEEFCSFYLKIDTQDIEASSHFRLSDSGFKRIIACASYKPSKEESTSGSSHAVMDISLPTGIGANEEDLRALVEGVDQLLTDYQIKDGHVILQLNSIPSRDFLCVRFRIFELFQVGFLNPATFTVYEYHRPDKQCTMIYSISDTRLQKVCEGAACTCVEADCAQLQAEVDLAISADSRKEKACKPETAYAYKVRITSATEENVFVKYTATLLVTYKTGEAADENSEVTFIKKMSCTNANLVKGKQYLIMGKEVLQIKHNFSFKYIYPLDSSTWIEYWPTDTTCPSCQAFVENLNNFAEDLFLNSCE

B1: Y32H/Q38R/L54H anti-C5 mAb (antibody, human IgG4 S228P, V domains shown)
VH: QVQLVQSGAEVKKPGASVKVSCKASGYIFSNHWIQWVRQAPGQGLEWMGEILPGSGSTEYTENFKDRVTMTRDTSTSTVYMELSSLRSEDTAVYYCARYFFGSSPNWYFDVWGQGTLVTVSS
VL: DIQMTQSPSSLSASVGDRVTITCGASENIYGALNWYQRKPGKAPKLLIYGATNHADGVPSRFSGSGSGTDFTLTISSLQPEDFATYYCQNVLNTPLTFGQGTKVEIK
Cynomolgus monkey C5
  EC50: ~0.2 µg/mL
Mouse C5
  binding result: no binding
Rat C5
  binding result: no binding
Rabbit C5
  binding result: no binding
